For orientation: EC50 means the concentration needed to bring the measured effect to its halfway point. Higher therefore signals lower potency in that assay.

This is an account of results in patent publication US20240238445A1, “INHIBITORS AND USES THEREOF” (NEURACLE SCIENCE CO., LTD., priority 2021, published 2024).

Test [1] addresses T1, FAM19A5 protein (Homo sapiens, UniProt Q7Z5A7). The test is described as follows: ELISA, coated hFc-conjugated ectodomain (100 nM/well), rFAM19A5 titrated 0.005-10 nM. A general note: ELISA stands for enzyme-linked immunosorbent assay.
The target of test [2] is T1, FAM19A5 protein. The test is described as follows: Co-immunoprecipitation of FLAG-tagged LRRC4 family deletion constructs/fragments with recombinant FAM19A5 in HEK293 cells. Particulars: HEK293 cells expressing FLAG-tagged construct, recombinant FAM19A5 1 μM 30 minutes; IP anti-FLAG, blot anti-FAM19A5 (3-2). The class given is binding. Put shortly: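 HEK293 cells expressing FLAG-tagged LRRC4B deletion constructs or LRRC4C (aa 354-527) / LRRC4 (aa 353-527) fragments were treated with 1 μM recombinant FAM19A5 for 30 min. Lysates immunoprecipitated with anti-FLAG and immunoblotted with anti-FLAG and anti-FAM19A5 (3-2) antibodies.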
Target sequence in this assay (Q7Z5A7 44-132): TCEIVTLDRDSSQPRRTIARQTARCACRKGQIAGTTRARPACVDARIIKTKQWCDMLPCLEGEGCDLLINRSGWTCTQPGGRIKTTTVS

Test [3] deals with binding of FAM19A5 protein to full-length ectodomain of the LRRC4B protein (amino acids 36-576 of SEQ ID NO: 2) (Homo sapiens, UniProt Q7Z5A7). Put plainly: Competitive inhibition assay, plate coated with full-length ectodomain of LRRC4B (amino acids 36-576). Particulars: increasing concentrations; FAM19A5 5 ng/mL; 100 nM coat. As to the method: Next, to further assess the role that the binding domain of the LRRC4B protein has on the interaction between FAM19A5 protein and members of the LRRC4 protein family, a competitive inhibition assay was used to determine whether different LRRC4B deletion constructs from Example 2 could inhibit the binding of FAM19A5 to the full-length ectodomain of the LRRC4B protein (i.e., amino acids 36-576 of SEQ ID NO: 2; SEQ ID NO: 5). Briefly, 100 nM of the full-length ectodomain of the LRRC4B protein was used to coat a plate, and then recombinant FAM19A5 protein (5 ng/mL) was added to the plate in combination with the following LRRC4B deletion constructs (increasing concentrations): (1) LRRC4B (453-576) (i.e., construct #11 in Table 6); (2) LRRC4B (453-576) mutant (comprises alanine substitutions at positions 488 and 489 of SEQ ID NO: 2; SEQ ID NO: 16); (3) LRRC4B (484-576) (i.e., construct #12 in Table 6); (4) LRRC4B (482-576); (5) LRRC4B (482-497); and (6) LRRC4B (498-576). The plates were incubated at 37° C., and then, the amount of FAM19A5 bound to the coated LRRC4B ectodomain protein was measured using HRP-conjugated anti-FAM19A5 (1-65) antibody.
(§1) As described in Example 3, there appeared to be much similarity in the binding domains of the different members of the LRRC4 family. […] Then, recombinant FAM19A5 protein (5 ng/mL) was added in combination with one of the following: (i) LRRC4B (484-576) protein fragment, (ii) LRRC4B (453-576, AA) protein fragment, and (iii) synthetic FB-20 peptide. The plates were incubated at 37° C., and then, the amount of FAM19A5 protein bound to the coated LRRC4, LRRC4B, or LRRC4C proteins was measured using anti-FAM19A5 (1-65) antibody.
Next, to assess whether polypeptides comprising the binding domains of LRRC4 or LRRC4C proteins can have similar inhibitory effects on LRRC4B protein binding, the following synthetic peptides were constructed: (1) FBC4-23 (contains the binding domain of the LRRC4 protein, i.e., YSFFTTVTVETTE); and (2) FBC4C-23 (contains the binding domain of the LRRC4C protein, i.e., FSYFSTVTVETME). Then, the ability of the peptides to inhibit the binding of LRRC4 protein family members to FAM19A5 protein was assessed using a competitive inhibition assay. Briefly, plates were coated with 100 nM of either LRRC4B protein fragment #1 (amino acids 36-576 of SEQ ID NO: 2; SEQ ID NO: 5) or LRRC4B protein fragment #2 (amino acids 453-576 of SEQ ID NO: 2; SEQ ID NO: 7). Then, recombinant FAM19A5 protein (5 ng/ml for plates coated with LRRC4B fragment #1; and 1 ng/mL for plates coated with LRRC4B fragment #2) was added to the plates in combination with 20 nM of the FBC4-23, FBC4C-23, and FB-20 peptides. The plates were incubated at 37° C. and then, the amount of FAM19A5 protein bound to the coated LRRC4B protein fragments was assessed using HRP-conjugated anti-FAM19A5 (1-65) antibody.
Next, to determine the minimal sequence required to inhibit the interaction of FAM19A5 and members of the LRRC4 protein family, ten FB-20 peptide variants were constructed by serially deleting one or more amino acids from the N-terminus or C-terminus of the FB-20 peptide. Then, a competitive inhibition assay was used to assess the ability of the different FB-20 peptide variants to inhibit the interaction between FAM19A5 and LRRC4B protein. Again, plates were coated with 100 nM of either LRRC4B protein fragment #1 (amino acids 36-576 of SEQ ID NO: 2; SEQ ID NO: 5) or LRRC4B protein fragment #2 (amino acids 453-576 of SEQ ID NO: 2; SEQ ID NO: 7). Then, recombinant FAM19A5 protein (5 ng/ml for plates coated with LRRC4B fragment #1; and 1 ng/mL for plates coated with LRRC4B fragment #2) was added to the plates in combination with 20 nM of the different peptides described above. After incubating the plates at 37° C., the amount of FAM19A5 protein bound to the coated LRRC4B protein fragments was assessed using HRP-conjugated anti-FAM19A5 (1-65) antibody. […]

For test [4], the target named is binding of FAM19A5 protein to full-length ectodomain of LRRC4 protein (Homo sapiens, UniProt Q7Z5A7). Put plainly: Competitive inhibition assay, plate coated with full-length ectodomain of LRRC4. Particulars: FAM19A5 5 ng/mL; 100 nM/well coat. As to the method:
as §1

Test [5] deals with binding of FAM19A5 protein to full-length ectodomain of LRRC4C protein (Homo sapiens, UniProt Q7Z5A7). Put plainly: Competitive inhibition assay, plate coated with full-length ectodomain of LRRC4C. Particulars: FAM19A5 5 ng/mL; 100 nM/well coat. As for the experimental part: as §1
Test [6] concerns the target T1, FAM19A5 protein. Put plainly: competitive inhibition ELISA; competitor: coated LRRC4B(453-576, TT/TT)-hFc.
For test [7], the target named is T2, FAM19A5 isoform 2 - LRRC4B protein complex in HEK293 cells (Homo sapiens, UniProt Q7Z5A7).
T2 construct: expressed in transfected cells; host or cells: HEK293
The test is described as follows: Immunofluorescence: dissociation of FAM19A5 from full-length LRRC4B in HEK293 cells. The class given is cell-based. Particulars: HEK293 cells expressing FAM19A5 isoform 2 and LRRC4B, treated 30 minutes. As to the method: Since LRRC4B protein fragments containing the binding domain described in Example 2 (e.g., LRRC4B (453-576); i.e., construct #11 in Table 6) was able to bind to FAM19A5 protein with high affinity, it was next assessed whether such protein fragments could compete with naturally existing LRRC4B protein for binding to FAM19A5 protein, and thereby, dissociate the FAM19A5-LRRC4 protein family complex. Briefly, HEK293 cells expressing both FAM19A5 isoform 2 and LRRC4B protein were treated in vitro for 30 minutes with either LRRC4B (453-576)-hFc or mutant LRRC4B (453-576)-hFc (includes alanine substitutions at positions 488 and 489 of SEQ ID NO: 2; SEQ ID NO: 16) protein fragments. Then, cells were immunostained with anti-FAM19A5 (1-65) and anti-LRRC4B antibodies to determine the expression of FAM19A5 and full-length LRRC4B proteins, respectively. The hFc-fused LRRC4B protein fragments were determined using an anti-hIgG antibody. The nuclei were stained with Hoechst 33342.

binding of FAM19A5 protein to full-length ectodomain of the LRRC4B protein (amino acids 36-576 of SEQ ID NO: 2), sequence (Q7Z5A7 44-132): as above
binding of FAM19A5 protein to full-length ectodomain of LRRC4 protein, sequence (Q7Z5A7 44-132): as above
binding of FAM19A5 protein to full-length ectodomain of LRRC4C protein, sequence (Q7Z5A7 44-132): as above
T2 sequence (Q7Z5A7 1-125 isoform Q7Z5A7-2, one chain of several): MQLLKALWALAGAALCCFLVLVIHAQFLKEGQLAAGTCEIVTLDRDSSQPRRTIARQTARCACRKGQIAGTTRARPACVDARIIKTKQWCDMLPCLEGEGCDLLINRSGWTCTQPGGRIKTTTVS

B1: full-length ectodomain of LRRC4 protein (amino acid residues 39-527 of SEQ ID NO: 1) conjugated to human Fc (Fc fusion, not shown: a dimerising Fc or GST)
chain: ASAGPQNCPSVCSCSNQFSKVVCTRRGLSEVPQGIPSNTRYLNLMENNIQMIQADTFRHLHHLEVLQLGRNSIRQIEVGAFNGLASLNTLELFDNWLTVIPSGAFEYLSKLRELWLRNNPIESIPSYAFNRVPSLMRLDLGELKKLEYISEGAFEGLFNLKYLNLGMCNIKDMPNLTPLVGLEELEMSGNHFPEIRPGSFHGLSSLKKLWVMNSQVSLIERNAFDGLASLVELNLAHNNLSSLPHDLFTPLRYLVELHLHHNPWNCDCDILWLAWWLREYIPTNSTCCGRCHAPMHMRGRYLVEVDQASFQCSAPFIMDAPRDLNISEGRMAELKCRTPPMSSVKWLLPNGTVLSHASRHPRISVLNDGTLNFSHVLLSDTGVYTCMVTNVAGNSNASAYLNVSTAELNTSNYSFFTTVTVETTEISPEDTTRKYKPVPTTSTGYQPAYTTSTTVLIQTTRVPKQVAVPATDTTDKMQTSLDEVMKTTK
B1 showed an EC50 in test [1] of 0.48 nM.

B2: LRRC4B (484-576): LRRC4B ectodomain fragment, amino acids 484-576 of SEQ ID NO: 2 (protein)
chain: YTYFTTVTVETLETQPGEEALQPRGTEKEPPGPTTDGVWGGGRPGDAAGPASSSTTAPAPRSSRPTEKAFTVPITDVTENALKDLDDVMKTTK
B2: the “binding to FAM19A5 protein (co-immunoprecipitation)” value in test [2] is given as “able to bind to the FAM19A5 protein with varying degree”. In addition, in test [3], the “inhibition of FAM19A5 binding to coated full-length LRRC4B ectodomain protein (in words)” value is given as “also able to inhibit the interaction”. In addition, the “inhibition of FAM19A5 binding to coated LRRC4 protein (in words)” value in test [4] is reported as “able to inhibit FAM19A5 protein from binding”. For the same molecule, the “inhibition of FAM19A5 binding to coated LRRC4C protein (in words)” value in test [5] was “able to inhibit FAM19A5 protein from binding”.

B3: full-length ectodomain of LRRC4B protein (amino acids 36-576 of SEQ ID NO: 2) conjugated to human Fc (Fc fusion, not shown: a dimerising Fc or GST)
chain: AGGGGVAVTSAAGGGSPPATSCPVACSCSNQASRVICTRRDLAEVPASIPVNTRYLNLQENGIQVIRTDTFKHLRHLEILQLSKNLVRKIEVGAFNGLPSLNTLELFDNRLTTVPTQAFEYLSKLRELWLRNNPIESIPSYAFNRVPSLRRLDLGELKRLEYISEAAFEGLVNLRYLNLGMCNLKDIPNLTALVRLEELELSGNRLDLIRPGSFQGLTSLRKLWLMHAQVATIERNAFDDLKSLEELNLSHNNLMSLPHDLFTPLHRLERVHLNHNPWHCNCDVLWLSWWLKETVPSNTTCCARCHAPAGLKGRYIGELDQSHFTCYAPVIVEPPTDLNVTEGMAAELKCRTGTSMTSVNWLTPNGTLMTHGSYRVRISVLHDGTLNFTNVTVQDTGQYTCMVTNSAGNTTASATLNVSAVDPVAAGGTGSGGGGPGGSGGVGGGSGGYTYFTTVTVETLETQPGEEALQPRGTEKEPPGPTTDGVWGGGRPGDAAGPASSSTTAPAPRSSRPTEKAFTVPITDVTENALKDLDDVMKTTK
In test [1], B3 registered an EC50 of 0.64 nM.

B4: FB-21 (W12Y13) (peptide)
peptide: GYTYFTTVTVEWYETQPGEEA
In test [6], B4 returned a fold increase in the ability to dissociate the LRRC4B-FAM19A5 complex, compared with the wild-type FB-21 of 2.9 fold.

B5: LRRC4B mutant: LRRC4B (453-576) with alanine substitutions at positions 488 and 489 of SEQ ID NO: 2 (protein)
chain: VSAVDPVAAGGTGSGGGGPGGSGGVGGGSGGYTYFAAVTVETLETQPGEEALQPRGTEKEPPGPTTDGVWGGGRPGDAAGPASSSTTAPAPRSSRPTEKAFTVPITDVTENALKDLDDVMKTTK
modifications: human Fc
Take B5: in test [7], the “dissociation of FAM19A5 from full-length LRRC4B protein” value is recorded as “remained largely bound to the full-length LRRC4B protein”. Besides, the “inhibition of FAM19A5 binding to coated full-length LRRC4B ectodomain protein (in words)” value in test [3] was “much inferior in their ability to inhibit the interaction”. In addition, the “inhibition of FAM19A5 binding to coated LRRC4 protein (in words)” value in test [4] is reported as “minimal effect”. Besides, the “inhibition of FAM19A5 binding to coated LRRC4C protein (in words)” value in test [5] was “minimal effect”.
